# B1: minF1; the commonest letter at each place (parent)
# chain: GAGACCGCAACTGAAAAGTTGTTATCAGAAATGGATGGGTTGAATTTCTGCACGTAGAAGCAAAAGGC
# Variants of: B1
# Test: fraction ligated after 30 min (ligated reads / total reads); higher = more ligase activity
# Conditions: with F1*subA RNA substrate (template-directed ligation), 42 °C
# Summary of the method: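 Templates from an oligo pool encoding minimized ligase ribozyme variants were amplified by PCR, transcribed with T7, and purified on gels. Gel electrophoresis separated ligated from unligated RNAs, which were then reverse transcribed using barcoded primers and sequenced on a MiSeq, keeping core bases with quality ≥30. For each variant, fraction ligated equals ligated reads divided by total reads.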
row,Variant,fraction ligated
1,GAGACCGCAACTGAAAAGTTGTTCTCAGAAATGAATGGGTTGAATTTCTGCACGTAGAAGCAAAAGGC [A24C G34A],0.0317
2,GAGACCGCAACTGAAAAGTTGTTCTCAGAAATGTATGGGTTGAATTTCTGCACGTAGAAGCAAAAGGC [A24C G34T],0.00294
3,GAGACCGCAACTGAAAAGTTGTTCTCAGAAATGCATGGGTTGAATTTCTGCACGTAGAAGCAAAAGGC [A24C G34C],0.00204
4,GAGACCGCAACTGAAAAGTTGTTCTCAGAAATTGATGGGTTGAATTTCTGCACGTAGAAGCAAAAGGC [A24C G33T],0.0129
5,GAGACCGCAACTGAAAAGTTGTTCTCAGAAATCGATGGGTTGAATTTCTGCACGTAGAAGCAAAAGGC [A24C G33C],0.00418
6,GAGACCGCAACTGAAAAGTTGTTCTCAGAAATAGATGGGTTGAATTTCTGCACGTAGAAGCAAAAGGC [A24C G33A],0.0216
7,GAGACCGCAACTGAAAAGTTGTTGTCTGAAATGGATGGGTTGAATTTCTGCACGTAGAAGCAAAAGGC [A24G A27T],0.231
8,GAGACCGCAACTGAAAAGTTGTTGTCGGAAATGGATGGGTTGAATTTCTGCACGTAGAAGCAAAAGGC [A24G A27G],0.0437
9,GAGACCGCAACTGAAAAGTTGTTGTCCGAAATGGATGGGTTGAATTTCTGCACGTAGAAGCAAAAGGC [A24G A27C],0.254
10,GAGACCGCAACTGAAAAGTTGTTCTCAGAATTGGATGGGTTGAATTTCTGCACGTAGAAGCAAAAGGC [A24C A31T],0.0211
11,GAGACCGCAACTGAAAAGTTGTTCTCAGAAGTGGATGGGTTGAATTTCTGCACGTAGAAGCAAAAGGC [A24C A31G],0.0441
12,GAGACCGCAACTGAAAAGTTGTTCTCAGAACTGGATGGGTTGAATTTCTGCACGTAGAAGCAAAAGGC [A24C A31C],0.0126
13,GAGACCGCAACTGAAAAGTTGTGATCAGAAATGGACGGGTTGAATTTCTGCACGTAGAAGCAAAAGGC [T23G T36C],0.0436
14,GAGACCGCAACTGAAAAGTTGTGATCAGAAATGGAGGGGTTGAATTTCTGCACGTAGAAGCAAAAGGC [T23G T36G],0.061
15,GAGACCGCAACTGAAAAGTTGTGATCAGAAATGGAAGGGTTGAATTTCTGCACGTAGAAGCAAAAGGC [T23G T36A],0.0286
16,GAGACCGCAACTGAAAAGTTGTTCACAGAAATGGATGGGTTGAATTTCTGCACGTAGAAGCAAAAGGC [A24C T25A],0.0142
17,GAGACCGCAACTGAAAAGTTGTTCCCAGAAATGGATGGGTTGAATTTCTGCACGTAGAAGCAAAAGGC [A24C T25C],0.0235
18,GAGACCGCAACTGAAAAGTTGTTCGCAGAAATGGATGGGTTGAATTTCTGCACGTAGAAGCAAAAGGC [A24C T25G],0.0197
19,GAGACCGCAACTGAAAAGTTGTTCTCAGAAATGGCTGGGTTGAATTTCTGCACGTAGAAGCAAAAGGC [A24C A35C],0.00154
20,GAGACCGCAACTGAAAAGTTGTTCTCAGAAATGGGTGGGTTGAATTTCTGCACGTAGAAGCAAAAGGC [A24C A35G],0.00404

row,Variant,fraction ligated
1,GAGACCGCAACTGAAAAGTTGTTCTCAGAAATGGTTGGGTTGAATTTCTGCACGTAGAAGCAAAAGGC [A24C A35T],0.00376
2,GAGACCGCAACTGAAAAGTTGTTCTCAGAAATGGATGGGTTGGATTTCTGCACGTAGAAGCAAAAGGC [A24C A43G],0.00364
3,GAGACCGCAACTGAAAAGTTGTTCTCAGAAATGGATGGGTTGTATTTCTGCACGTAGAAGCAAAAGGC [A24C A43T],0.0035
4,GAGACCGCAACTGAAAAGTTGTTCTCAGAAATGGATGGGTTGCATTTCTGCACGTAGAAGCAAAAGGC [A24C A43C],0.0036
5,GAGACCGCAACTGAAAAGTTGTTCTCTGAAATGGATGGGTTGAATTTCTGCACGTAGAAGCAAAAGGC [A24C A27T],0.105
6,GAGACCGCAACTGAAAAGTTGTTCTCCGAAATGGATGGGTTGAATTTCTGCACGTAGAAGCAAAAGGC [A24C A27C],0.056
7,GAGACCGCAACTGAAAAGTTGTTCTCGGAAATGGATGGGTTGAATTTCTGCACGTAGAAGCAAAAGGC [A24C A27G],0.0468
8,GAGACCGCAACTGAAAAGTTGTTCTCAGAAAAGGATGGGTTGAATTTCTGCACGTAGAAGCAAAAGGC [A24C T32A],0.00211
9,GAGACCGCAACTGAAAAGTTGTTCTCAGAAAGGGATGGGTTGAATTTCTGCACGTAGAAGCAAAAGGC [A24C T32G],0.00553
10,GAGACCGCAACTGAAAAGTTGTTCTCAGAAACGGATGGGTTGAATTTCTGCACGTAGAAGCAAAAGGC [A24C T32C],0.00194
11,GAGACCGCAACTGAAAAGTTGTGATCAGAAATGTATGGGTTGAATTTCTGCACGTAGAAGCAAAAGGC [T23G G34T],0.00441
12,GAGACCGCAACTGAAAAGTTGTTGTCAGAAATGGATGGGTTGAATTTCTGCACGTAGAAGCAAAAGGC [A24G],0.122
13,GAGACCGCAACTGAAAAGTTGTTCTCAGAAATGGATGGGTTGAATTTCTGCACGTAGAAGCAAAAGGC [A24C],0.025
14,GAGACCGCAACTGAAAAGTTGTTCTCAAAAATGGATGGGTTGAATTTCTGCACGTAGAAGCAAAAGGC [A24C G28A],0.0266
15,GAGACCGCAACTGAAAAGTTGTTCTCATAAATGGATGGGTTGAATTTCTGCACGTAGAAGCAAAAGGC [A24C G28T],0.0617
16,GAGACCGCAACTGAAAAGTTGTTCTCACAAATGGATGGGTTGAATTTCTGCACGTAGAAGCAAAAGGC [A24C G28C],0.0343
17,GAGACCGCAACTGAAAAGTTGTTGTCAGAACTGGATGGGTTGAATTTCTGCACGTAGAAGCAAAAGGC [A24G A31C],0.0105
18,GAGACCGCAACTGAAAAGTTGTTGTCAGAAGTGGATGGGTTGAATTTCTGCACGTAGAAGCAAAAGGC [A24G A31G],0.0578
19,GAGACCGCAACTGAAAAGTTGTTGTCAGAATTGGATGGGTTGAATTTCTGCACGTAGAAGCAAAAGGC [A24G A31T],0.0427
20,GAGACCGCAACTGAAAAGTTGTTGTCAGAAATGGCTGGGTTGAATTTCTGCACGTAGAAGCAAAAGGC [A24G A35C],0.0163

# Source: the supplement of paper PMC6755084
